Experimental data: patent publication US20200207850A1 (MacroGenics, published 2020)

T1: B7-H3 on A498 and JIMT-1 target cells (UniProt Q5ZPR3 29-534, limits assumed)
T1 sequence (looked up): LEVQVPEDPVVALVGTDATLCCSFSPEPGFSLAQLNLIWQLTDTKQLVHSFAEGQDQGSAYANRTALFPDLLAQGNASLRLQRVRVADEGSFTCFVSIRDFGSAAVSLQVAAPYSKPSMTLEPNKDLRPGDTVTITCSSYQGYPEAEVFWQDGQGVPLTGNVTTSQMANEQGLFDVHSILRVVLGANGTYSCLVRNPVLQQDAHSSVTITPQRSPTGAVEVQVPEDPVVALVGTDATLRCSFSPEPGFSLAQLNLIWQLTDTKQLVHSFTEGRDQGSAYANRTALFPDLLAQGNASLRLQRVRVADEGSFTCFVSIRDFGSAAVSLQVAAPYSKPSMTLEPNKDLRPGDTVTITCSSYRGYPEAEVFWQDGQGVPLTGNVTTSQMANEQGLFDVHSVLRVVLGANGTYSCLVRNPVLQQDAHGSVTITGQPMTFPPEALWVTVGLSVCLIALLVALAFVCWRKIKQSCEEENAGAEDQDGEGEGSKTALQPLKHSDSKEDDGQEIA

B1: B7-H3 mAb 1/CD8 mAb 1/CD3 mAb 2 Tri-Specific Binding Molecule (other)
chain 1: DVQINQSPSFLAASPGETITINCRTSRSISQYLAWYQEKPGKTNKLLIYSGSTLQSGIPSRFSGSGSGTDFTLTISGLEPEDFAMYYCQQHNENPLTFGAGTKLELRGGGSGGGGQVQLVQSGAEVKKPGASVKVSCKASGYTFTSYWMQWVRQAPGQGLEWMGTIYPGDGDTRYTQKFKGRVTITADKSTSTAYMELSSLRSEDTAVYYCARRGIPRLWYFDVWGQGTTVTVSSGGCGGGEVAALEKEVAALEKEVAALEKEVAALEKGGGDKTHTCPPCPAPEAAGGPSVFLFPPKPKDTLMISRTPEVTCVVVDVSHEDPEVKFNWYVDGVEVHNAKTKPREEQYNSTYRVVSVLTVLHQDWLNGKEYKCKVSNKALPAPIEKTISKAKGQPREPQVYTLPPSREEMTKNQVSLWCLVKGFYPSDIAVEWESNGQPENNYKTTPPVLDSDGSFFLYSKLTVDKSRWQQGNVFSCSVMHEALHNHYTQKSLSLSPGK
chain 2: DIQMTQSPSSLSASVGDRVTITCRASQDISNYLNWYQQKPGKAPKLLIYYTSRLHSGVPSRFSGSGSGTDFTLTISSLQPEDIATYYCQQGNTLPPTFGGGTKLEIKGGGSGGGGEVQLQQSGAELVKPGASVKLSCTASGFNIKDTYIHFVRQRPEQGLEWIGRIDPANDNTLYASKFQGKATITADTSSNTAYMHLCSLTSGDTAVYYCGRGYGYYVFDHWGQGTTLTVSSGGCGGGKVAALKEKVAALKEKVAALKEKVAALKE
heavy: EVQLVESGGGLVQPGGSLRLSCAASGFTFSTYAMNWVRQAPGKGLEWVGRIRSKYNNYATYYADSVKDRFTISRDDSKNSLYLQMNSLKTEDTAVYYCVRHGNFGNSYVSWFAYWGQGTLVTVSSASTKGPSVFPLAPSSKSTSGGTAALGCLVKDYFPEPVTVSWNSGALTSGVHTFPAVLQSSGLYSLSSVVTVPSSSLGTQTYICNVNHKPSNTKVDKRVEPKSCDKTHTCPPCPAPEAAGGPSVFLFPPKPKDTLMISRTPEVTCVVVDVSHEDPEVKFNWYVDGVEVHNAKTKPREEQYNSTYRVVSVLTVLHQDWLNGKEYKCKVSNKALPAPIEKTISKAKGQPREPQVYTLPPSREEMTKNQVSLSCAVKGFYPSDIAVEWESNGQPENNYKTTPPVLDSDGSFFLVSKLTVDKSRWQQGNVFSCSVMHEALHNRYTQKSLSLSPGK
light: QAVVTQEPSLTVSPGGTVTLTCRSSTGAVTTSNYANWVQQKPGQAPRGLIGGTNKRAPWTPARFSGSLLGGKAALTITGAQAEDEADYYCALWYSNLWVFGGGTKLTVLGRTVAAPSVFIFPPSDEQLKSGTASVVCLLNNFYPREAKVQWKVDNALQSGNSQESVTEQDSKDSTYSLSSTLTLSKADYEKHKVYACEVTHQGLSSPVTKSFNRGEC
B2: ROR1 mAb 1/CD3 mAb 2/CD8 mAb 2 Tri-Specific Binding Molecule (other)
chain 1: QLVLTQSPSASASLGSSVKLTCTLSSGHKTDTIDWYQQQPGKAPRYLMKLEGSGSYNKGSGVPDRFGSGSSSGADRYLTISSLQSEDEADYYCGTDYPGNYLFGGGTQLTVLGGGGSGGGGEVQLVESGGGLVQPGGSLRLSCAASGFTFSTYAMNWVRQAPGKGLEWVGRIRSKYNNYATYYADSVKGRFTISRDDSKNSLYLQMNSLKTEDTAVYYCVRHGNFGNSYVSWFAYWGQGTLVTVSSGGCGGGEVAALEKEVAALEKEVAALEKEVAALEKGGGDKTHTCPPCPAPEAAGGPSVFLFPPKPKDTLMISRTPEVTCVVVDVSHEDPEVKFNWYVDGVEVHNAKTKPREEQYNSTYRVVSVLTVLHQDWLNGKEYKCKVSNKALPAPIEKTISKAKGQPREPQVYTLPPSREEMTKNQVSLWCLVKGFYPSDIAVEWESNGQPENNYKTTPPVLDSDGSFFLYSKLTVDKSRWQQGNVFSCSVMHEALHNHYTQKSLSLSPGK
chain 2: QAVVTQEPSLTVSPGGTVTLTCRSSTGAVTTSNYANWVQQKPGQAPRGLIGGTNKRAPWTPARFSGSLLGGKAALTITGAQAEDEADYYCALWYSNLWVFGGGTKLTVLGGGGSGGGGQEQLVESGGGLVQPGGSLRLSCAASGFTFSDYYMSWVRQAPGKGLEWVATIYPSSGKTYYADSVKGRFTISSDNAKNSLYLQMNSLRAEDTAVYYCARDSYADDAALFDIWGQGTTVTVSSGGCGGGKVAALKEKVAALKEKVAALKEKVAALKE
heavy: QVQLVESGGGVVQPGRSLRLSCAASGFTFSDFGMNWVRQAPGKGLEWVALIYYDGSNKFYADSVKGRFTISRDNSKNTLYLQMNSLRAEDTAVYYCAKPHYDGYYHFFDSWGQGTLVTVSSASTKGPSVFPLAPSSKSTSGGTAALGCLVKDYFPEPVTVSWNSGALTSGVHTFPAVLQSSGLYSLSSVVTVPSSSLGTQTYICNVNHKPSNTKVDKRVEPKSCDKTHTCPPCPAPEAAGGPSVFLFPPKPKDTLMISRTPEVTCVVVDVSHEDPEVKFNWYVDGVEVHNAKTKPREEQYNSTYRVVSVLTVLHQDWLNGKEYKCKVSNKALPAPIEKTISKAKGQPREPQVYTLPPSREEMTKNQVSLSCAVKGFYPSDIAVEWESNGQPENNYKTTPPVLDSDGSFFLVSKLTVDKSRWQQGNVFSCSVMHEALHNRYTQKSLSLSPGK
light: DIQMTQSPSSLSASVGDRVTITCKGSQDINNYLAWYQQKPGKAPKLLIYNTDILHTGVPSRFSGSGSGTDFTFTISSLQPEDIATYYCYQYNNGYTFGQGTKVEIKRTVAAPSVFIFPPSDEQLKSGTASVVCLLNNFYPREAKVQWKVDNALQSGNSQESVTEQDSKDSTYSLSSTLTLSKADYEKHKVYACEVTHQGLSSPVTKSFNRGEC

What was measured:
[1] = target: T1, B7-H3 on A498 and JIMT-1 target cells; assay: cell-based or functional assay
[2] = target: ROR1 on JIMT-1 and A549 target cells (UniProt Q01973 30-937, limits assumed); assay: cell-based or functional assay

Binder | EC50 (nM) of killing, CD4+ effector cells, JIMT1-luc target cells, E:T 5:1 [1] [nM] | EC50 (nM) of killing, CD8+ effector cells, JIMT1-luc target cells, E:T 5:1 [1] [nM] | EC50 (nM) of killing, PanT effector cells, JIMT1-luc target cells, E:T 5:1 [1] [nM] | EC50 (nM) of killing, CD4+ effector cells, JIMT1-luc target cells, E:T 5:1 [2] [nM] | EC50 (nM) of killing, CD8+ effector cells, JIMT1-luc target cells, E:T 5:1 [2] [nM] | EC50 (nM) of killing, PanT effector cells, JIMT1-luc target cells, E:T 5:1 [2] [nM]
B1 | 1.1 | 0.412 | 0.535 | – | – | –
B2 | – | – | – | 0.277 | 0.0021 | 0.0057
